# Measured values: patent publication US9012420B2, “Aptamer for chymase, and use thereof” (Ribomic Inc., priority 2009, dated 2015)
# Oligonucleotides are written 5' to 3', each unit as a sugar letter and its base; * is a phosphorothioate linkage, no mark a phosphodiester; rarer units and linkages stand in square brackets, end groups in braces. Plain capitals give the bases only. r = 2'-OH (RNA); f = 2'-fluoro
# T1: chymase (Homo sapiens, UniProt P23946)
# T1 sequence (P23946 22-247): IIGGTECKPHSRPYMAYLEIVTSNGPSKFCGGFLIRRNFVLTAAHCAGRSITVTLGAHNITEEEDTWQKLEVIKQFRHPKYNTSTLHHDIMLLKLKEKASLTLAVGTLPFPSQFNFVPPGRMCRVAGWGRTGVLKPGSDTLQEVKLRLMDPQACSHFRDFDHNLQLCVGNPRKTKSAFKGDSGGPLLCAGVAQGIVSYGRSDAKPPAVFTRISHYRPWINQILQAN
# T2: chymase (recombinant) (UniProt P23946 P23946:22-247)
# T2 sequence: T1 sequence (P23946 22-247)
# T3: chymase (Homo sapiens, UniProt P23946 P23946:22-247)
# T3 sequence: T1 sequence (P23946 22-247)
# B1: GGGACGGUAGGAAUUCUGCCGCAACCCAAUGAAAACGAAGAUAGAGAUAAAUCGAACAUAGAAGAGCGGCCGC (nucleic acid)
# chain: rGrGrGrAfCrGrGfUrArGrGrArAfUfUfCfUrGfCfCrGfCrArAfCfCfCrArAfUrGrArArArAfCrGrArArGrAfUrArGrArGrAfUrArArAfUfCrGrArAfCrAfUrArGrArArGrArGfCrGrGfCfCrGfC
# modifications: aptamer
# B2: SEQ 34 (ssRNA)
# RNA: GGGACGGUAGGAAUUCUGCCGCAACCCAAUGAAAACGAAGAUAGAGAUAAAUCGAACAUAGAAGAGCGGCCGC
# modifications: 2'-F pyrimidines
# B3: SEQ 22 (ssRNA)
# RNA: GGGACGGUAGGAAUUCCCGACACAAAAUGUGUGAUUAAUUCCGAACAACAAAGUAACAUAGAAGAGCGGCCGC
# modifications: 2'-F pyrimidines
# B4: SEQ 28 (ssRNA)
# RNA: GGGACGGUAGGAAUUCAAUUUCUUUCUAUUCUCACCUGAGUAUAUCAGGCACAGUACAUAGAAGAGCGGCCGC
# modifications: 2'-F pyrimidines
# B5: SEQ 20 (ssRNA)
# RNA: GGGACGGUAGGAAUUCAAAAUCAGCUGAUUUGUAAUUUUUUUACACAGGCAAAACACAUAGAAGAGCGGCCGC
# modifications: 2'-F pyrimidines
# B6: SEQ 32 (ssRNA)
# RNA: GGGACGGUAGGAAUUCGUCCUCAUGUCUAUUUUGCAGAUAGACUUAAAGCAAACAUAGAAGAGCGGCCGC
# modifications: 2'-F pyrimidines
# B7: SEQ 31 (ssRNA)
# RNA: GGGACGGUAGGAAUUCGUCCCUCAUGUCUAUUUUGCAGAUAGACUUAAAGCAAACAUAGAAGAGCGGCCGC
# modifications: 2'-F pyrimidines
# B8: SEQ 33 (ssRNA)
# RNA: GGGACGGUAGGAAUUCCUGUCUUUUCCCACGCAACAAAUUACAGAGCUUUGCAAAACAUAGAAGAGCGGCCGC
# modifications: 2'-F pyrimidines
# B9: SEQ 63 (ssRNA)
# RNA: GCUACAGAUAGAGUUAAAGUAGC
# modifications: 2'-F pyrimidines
# B10: SEQ 62 (ssRNA)
# RNA: GGGUUGGAUAGAGUUAAGAACCC
# modifications: 2'-F pyrimidines
# B11: SEQ 65 (ssRNA)
# RNA: GGCAGAUAGAGUUAAAGCC
# modifications: 2'-F pyrimidines
# B12: SEQ 60 (ssRNA)
# RNA: GGGUUAGAUAGAGCUAAAAACCC
# modifications: 2'-F pyrimidines
# B13: SEQ 61 (ssRNA)
# RNA: GGGUUAGAUAGAUUUAAAAACCC
# modifications: 2'-F pyrimidines
# B14: SEQ 59 (ssRNA)
# RNA: GGGUUAGAUAGAGAUAAAAACCC
# modifications: 2'-F pyrimidines
# B15: SEQ 64 (ssRNA)
# RNA: GUCACAGAUAGAGUUAAAGUGAC
# modifications: 2'-F pyrimidines
# B16: SEQ 29 (ssRNA)
# RNA: GGGACGGUAGGAAUUCACGACCGCCCAAAAAAUGGUGACAUUUUAGAAACACCGAACAUAGAAGAGCGGCCGC
# modifications: 2'-F U and C
# B17: SEQ 16 (ssRNA)
# RNA: GGGACGGUAGGAAUUCCCAUGACUGAAAAACGUCAGUAAAAUCCGAAAAUCAUAUCAUAGAAGAGCGGCCGC
# modifications: 2'-F U and C
# B18: SEQ 7 (ssRNA)
# RNA: GGGACGGUAGGAAUUCACCUUUCCAAUUGUGAAAGAAACACAAAAAGAAAUGACAUCAUAGAAGAGCGGCCGC
# modifications: 2'-F U and C
# B19: SEQ 27 (ssRNA)
# RNA: GGGACGGUAGGAAUUCCGUCAUCGGUUGCAAAUUGAAAAUACAAAACAAGGACAACCAUAGAAGAGCGGCCGC
# modifications: 2'-F U and C
# B20: SEQ 53 (ssRNA)
# RNA: GGGUAACUAUGGUUAGAUAGAGUUAAAAACCAUAGAAGACCC
# modifications: 2'-F pyrimidines
# B21: SEQ 50 (ssRNA)
# RNA: GGCAUUCUACAGAUAGAGAUAAAGUAGAAUUUAAC
# modifications: 2'-F pyrimidines
# B22: SEQ 54 (ssRNA)
# RNA: UAACUAUGGUUAGAUAGAGUUAAAAACCAUAGAAGA
# modifications: 2'-F pyrimidines
# B23: SEQ 55 (ssRNA)
# RNA: CUAUGGUUAGAUAGAGUUAAAAACCAUAG
# modifications: 2'-F pyrimidines
# B24: SEQ 57 (ssRNA)
# RNA: GCAUUUGAGAUAGAUUUAAACAAACGC
# modifications: 2'-F pyrimidines
# B25: SEQ 51 (ssRNA)
# RNA: CGUUACAUAAUGUAUAUACCAGGGUAACUAAACAUAGAAGAGCGG
# modifications: 2'-F pyrimidines
# B26: SEQ 49 (ssRNA)
# RNA: GGUUCUACAGAUAGAGAUAAAGUAGAACC
# modifications: 2'-F pyrimidines
# Target: T1, chymase
# Test: Surface plasmon resonance (Biacore T100), aptamer immobilized on SA chip, chymase injected as analyte
# Type: binding
# Conditions: Table 1; about 1000 RU nucleic acid immobilized, chymase 0.2 μM analyte, running buffer solution A; compared with 40N
# Description: Binding strength is measured using Biacore T100 (manufactured by GE Healthcare). In a method of measurement, the aptamer is first immobilized onto a sensor chip, the amount immobilized being about 1000 RU. 20 μL of a chymase solution for analyte, prepared at 0.2 μM, is injected, and the binding of chymase to the aptamer is detected. An RNA comprising a random nucleotide sequence of 30 or 40 nucleotides is used as a negative control.
# (§1) The binding activities against chymase of the nucleic acids shown by SEQ ID NO: 4-20 and 22-34 were determined by the surface plasmon resonance method using Biacore T100 (manufactured by GE Healthcare). The sensor chip used was the SA chip, which had streptavidin immobilized thereon. Bound thereto was about 1500 RU of a 16-nucleotide Poly dT with biotin bound to the 5′ end thereof. […] 20 μL of chymase for analyte, prepared at 0.2 μM, was injected. Solution A was used as a running buffer.
# The binding activities against chymase of the nucleic acids shown by SEQ ID NO: 38-48 were evaluated by the surface plasmon resonance method. In the evaluations for SEQ ID NO: 38-48, measurements were taken in the same manner as Example 1. Solution C was used as a running buffer.
row,Molecule,Binding activity as determined using Biacore
1,B1,equivalent binding activity compared with 40N

# Target: T2, chymase (recombinant)
# Test: inhibition; SPR +
# Conditions: tags: SIGMA, expressed in yeast
# Description: (§2) Here, Suc is a protecting succinyl group, and MCA is a 4-methylcoumaryl-7-amide group; upon cleavage of the C-terminal side of phenylalanine, AMC (7-amino-4-methyl-coumarine) is released. By detecting the fluorescence of this AMC, the enzyme activity of chymase can be determined. The assay was performed using a 96-well plate (F16 Black Maxisorp Fluoronunc, manufactured by Nunc), with a reaction mixture volume of 100 μL, in solution C as a buffer solution. First, each nucleic acid was serially diluted to 0.0027-2 μM concentrations in solution C to obtain 50 μL solutions. After 10 μL of the 1 mM substrate prepared in solution C was added thereto, the plate was set to the microplate reader SpectraMax190 (manufactured by Molecular Devices Corporation), and incubated at 37° C. for 5 minutes. Separately, 0.05 μg (or 0.005 μg) of chymase (recombinant, manufactured by SIGMA) was diluted in solution C to obtain a 40 μL chymase solution, and incubated at 37° C. for 5 minutes. The chymase solution was added to the mixture of the nucleic acid and substrate to initiate an enzyme reaction. The final chymase concentration in the reaction mixture was 16.7 nM (or 1.67 nM), the final substrate concentration being 100 μM. The plate containing the reaction mixture was set to the microplate reader SpectraMax190 (manufactured by Molecular Devices Corporation), and examined for time-dependent changes in the fluorescence intensity at 37° C. for 5 minutes (or 30 minutes) (excitation wavelength 380 nm, detection wavelength 460 nm). A linear approximation of the increase in the fluorescence of the AMC released from the substrate by chymase activity was generated, and its slope was taken as the initial velocity […]. For control, samples were treated and analyzed in the same manner in two cases: use of a 30N or 40N (a nucleotide of 30 or 40 consecutive bases represented by N; N is A, G, C or T) nucleic acid pool (negative control), and use of chymostatin, a known chymotrypsin-like serine protease inhibitor (positive control). Taking the initial reaction velocity without the nucleic acid and inhibitor (V_0) as a 100% enzyme activity, the inhibitory rate of each test substance was calculated using the following equation: […]
row,Molecule,IC50
1,B2,137 nM
2,B3,105 nM
3,B4,45 nM
4,B5,282 nM
5,B6,235 nM
6,B7,155 nM
7,B8,145 nM

# Target: T2, chymase (recombinant)
# Test: inhibition; SPR ++
# Conditions: tags: SIGMA, expressed in yeast
# Description: as §2, with “By” for “Here, Suc is a protecting succinyl group, and MCA is a 4-methylcoumaryl-7-amide group; upon cleavage of the C-terminal side of phenylalanine, AMC (7-amino-4-methyl-coumarine) is released. By”
# All nucleic acids of SEQ ID NO: 58-68 were prepared by chemical synthesis. Whether these nucleic acids are bound to chymase was assessed by surface plasmon resonance method in the same manner as in Example 4. The inhibitory activity on chymase was measured in the same manner as in Example 3.
row,Molecule,IC50
1,B9,23 nM
2,B10,29 nM
3,B11,56 nM
4,B12,26 nM
5,B13,23 nM
6,B14,38 nM
7,B15,20 nM

# Target: T3, chymase
# Test: SPR; stronger than 40N; solution A
# Conditions: tags: human skin mast cell, Calbiochem
# Description: as §1, with “5'” for “5′”
row,Molecule,binding result
1,B16,binds
2,B17,binds
3,B18,binds
4,B19,binds

# Target: T2, chymase (recombinant)
# Test: inhibition; SPR ++
# Conditions: tags: SIGMA, expressed in yeast
# Remark: another data set of the same source
# Description: as §2
# Chymase inhibitory activity was determined in the same manner as Example 3.
row,Molecule,IC50
1,B20,66 nM
2,B21,138 nM
3,B22,51 nM
4,B23,55 nM
5,B24,99 nM
6,B25,24 nM
7,B26,117 nM
